Experimental data from paper PMC11533527, “A yeast two-hybrid system to obtain triple-helical ligands from combinatorial random peptide libraries” (The Journal of Biological Chemistry, 2024).

How the values were obtained:
[1] = molecular target: the molecule itself; test: circular dichroism with thermal melting; peptides in PBS, heated at 95 °C, annealed at 4 °C overnight; [θ]225 followed from 4 to 85 °C; chains of one peptide forming a triple helix
[2] = molecular target: T1, glutathione S-transferase (GST)-PEDF-fusion protein (mouse, UniProt P97298 20-417); test: ELISA; competitive ELISA: wells coated with 10 μg/ml collagen I; annealed peptides preincubated with 3 nM GST-PEDF for 10 min at room temperature in 20 mM HEPES-Na pH 7.4, 100 mM NaCl, 0.005% Tween 20; 90 min at 4 °C in the wells; HRP-anti-GST detection; conditions: both partners purified
T1 construct: pigment epithelium-derived factor (PEDF); also called GST-fused PEDF; recombinant PEDF
T1 sequence (looked up): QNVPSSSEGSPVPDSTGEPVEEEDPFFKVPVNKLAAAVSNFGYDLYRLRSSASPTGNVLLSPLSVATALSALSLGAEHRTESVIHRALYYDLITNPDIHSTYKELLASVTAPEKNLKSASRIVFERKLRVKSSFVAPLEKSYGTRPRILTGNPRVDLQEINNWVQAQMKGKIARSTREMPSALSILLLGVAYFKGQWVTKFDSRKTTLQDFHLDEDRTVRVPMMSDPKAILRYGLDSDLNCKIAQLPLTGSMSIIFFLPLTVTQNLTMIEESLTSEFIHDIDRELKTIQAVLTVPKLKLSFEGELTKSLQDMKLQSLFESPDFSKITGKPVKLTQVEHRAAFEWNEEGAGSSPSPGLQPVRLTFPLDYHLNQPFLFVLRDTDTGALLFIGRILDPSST

B1: synthetic triple-helical peptide pep8 (peptide)
chain: YPPGPPGPPGPPGPRGPRGLLGLPGPPGPPGPPGPPG
HELM: PEPTIDE1{Y.P.[Hyp].G.P.[Hyp].G.P.[Hyp].G.P.[Hyp].G.P.R.G.P.R.G.L.L.G.L.[Hyp].G.P.[Hyp].G.P.[Hyp].G.P.[Hyp].G.P.[Hyp].G.[am]}$$$$V2.0; N-terminus assumed
SMILES: CC(C)C[C@H](NC(=O)CNC(=O)[C@H](CCCNC(=N)N)NC(=O)[C@@H]1CCCN1C(=O)CNC(=O)[C@H](CCCNC(=N)N)NC(=O)[C@@H]1CCCN1C(=O)CNC(=O)[C@@H]1C[C@@H](O)CN1C(=O)[C@@H]1CCCN1C(=O)CNC(=O)[C@@H]1C[C@@H](O)CN1C(=O)[C@@H]1CCCN1C(=O)CNC(=O)[C@@H]1C[C@@H](O)CN1C(=O)[C@@H]1CCCN1C(=O)CNC(=O)[C@@H]1C[C@@H](O)CN1C(=O)[C@@H]1CCCN1C(=O)[C@@H](N)Cc1ccc(O)cc1)C(=O)N[C@@H](CC(C)C)C(=O)NCC(=O)N[C@@H](CC(C)C)C(=O)N1C[C@H](O)C[C@H]1C(=O)NCC(=O)N1CCC[C@H]1C(=O)N1C[C@H](O)C[C@H]1C(=O)NCC(=O)N1CCC[C@H]1C(=O)N1C[C@H](O)C[C@H]1C(=O)NCC(=O)N1CCC[C@H]1C(=O)N1C[C@H](O)C[C@H]1C(=O)NCC(=O)N1CCC[C@H]1C(=O)N1C[C@H](O)C[C@H]1C(=O)NCC(N)=O
notes: Triple helix by CD; annealed before use; source: synthetic peptide (Fmoc solid phase, RP-HPLC purified)
binding result [1]: binds
IC50 [2]: > 10 µM
